Legend:
[1] = molecular target: mouse IgG1 Fc fused SARS-CoV-1 RBD (Sino Biological, 40150-V05H) (SARS-CoV-1, isolate not named, UniProt P59594); experiment: BLI
[2] = molecular target: monomeric human Fc-fused SARS-CoV-2_RBD-SD1 (SARS-CoV-2 (Wuhan-Hu-1), UniProt P0DTC2); experiment: BLI
[3] = molecular target: SARS-CoV-2 spike expressed on the surface of HEK293 cells (SARS-CoV-2 (Wuhan-Hu-1), UniProt P0DTC2); experiment: flow cytometry on cells

B1: humVHH_S56A (VHH)
VHH: EVQLVESGGGLVQPGGSLRLSCAASGRTFSEYAMGWFRQAPGKEREFVATISWSGGATYYTDSVKGRFTISRDNAKNTVYLQMNSLRPEDTAVYYCAAAGLGTVVSEWDYDYDYWGQGTLVTVSS
B1 was tested, and the binding result [1] was “binds” and the “fold increase in affinity over humVHH” value [2] was about 7 fold.

B2: humVHH (VHH)
VHH: EVQLVESGGGLVQPGGSLRLSCAASGRTFSEYAMGWFRQAPGKEREFVATISWSGGSTYYTDSVKGRFTISRDNAKNTVYLQMNSLRPEDTAVYYCAAAGLGTVVSEWDYDYDYWGQGTLVTVSS
B2: binds [2]; binds [3].

— publication doi:10.1101/2021.03.08.433449 (bioRxiv, 2021)
